# According to article PMC11077089, “Molecular basis of A. thaliana KEOPS complex in biosynthesizing tRNA t6A”:
# Changes are numbered by the printed parent chain.
# B1: 5'-6FAM-tRNAArgCCU (structured_RNA)
# RNA: GCGCCUGUAGCUCAGUGGAUAGAGCGUCUGUUUCCUAAGCAGAAGGUCGUAGGUUCGACCCCUACCUGGCGCGCCA
# What was measured:
# Assay in all cases: EMSA; MST: 20 mM PBS pH 7.5, 300 mM NaCl, 0.05% Tween 20, 25 C, 50 nM RNA; EMSA: 20 mM Tris-HCl pH 7.5, 300 mM NaCl, 5 mM b-mercaptoethanol, 20% glycerol, agarose gel in Tris-glycine pH 8.0 (8.5 for FAM-RNA), 4 C
# [1] = biological target: T1, KAE1;BUD32 L165K;CGI121;PCC1 (Arabidopsis thaliana;Arabidopsis …, UniProt O49653;Q94K14;Q6NMZ4;Q8GWD7 1-353;1-226;1-172;1-96, |L165K||); details: protein: recombinant;recombinant;recombinant;recombinant; tags: none (6His on partner PCC1);;6His (C-term);6His (C-term); chain copies: 2;2;2;2; label: 5' 6-FAM; tRNA cloverleaf
# T1 sequence 1: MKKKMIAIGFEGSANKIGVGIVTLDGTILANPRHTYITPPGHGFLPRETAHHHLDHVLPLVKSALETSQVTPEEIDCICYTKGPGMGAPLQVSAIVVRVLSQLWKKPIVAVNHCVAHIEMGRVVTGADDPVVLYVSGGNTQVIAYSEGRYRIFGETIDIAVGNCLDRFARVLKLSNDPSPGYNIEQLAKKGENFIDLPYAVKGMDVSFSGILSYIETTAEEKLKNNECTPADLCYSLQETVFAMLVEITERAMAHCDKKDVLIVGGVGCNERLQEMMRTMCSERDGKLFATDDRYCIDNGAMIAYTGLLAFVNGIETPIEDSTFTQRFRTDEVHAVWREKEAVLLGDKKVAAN
# T1 sequence 2: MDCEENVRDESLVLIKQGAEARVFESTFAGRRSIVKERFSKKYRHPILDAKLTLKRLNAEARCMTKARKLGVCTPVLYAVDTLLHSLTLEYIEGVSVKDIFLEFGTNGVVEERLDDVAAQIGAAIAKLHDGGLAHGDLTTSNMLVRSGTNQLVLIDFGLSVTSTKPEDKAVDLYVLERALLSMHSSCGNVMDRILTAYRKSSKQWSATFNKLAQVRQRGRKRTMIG
# T1 sequence 3: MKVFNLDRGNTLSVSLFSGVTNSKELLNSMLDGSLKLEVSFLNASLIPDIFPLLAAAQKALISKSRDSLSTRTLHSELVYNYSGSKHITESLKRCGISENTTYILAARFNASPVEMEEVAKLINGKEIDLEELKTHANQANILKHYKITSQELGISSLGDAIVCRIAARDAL
# T1 sequence 4: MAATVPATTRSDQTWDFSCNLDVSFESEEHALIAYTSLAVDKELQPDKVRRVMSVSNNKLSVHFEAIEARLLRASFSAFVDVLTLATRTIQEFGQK
# [2] = biological target: T2, KAE1;BUD32 I47K;CGI121;PCC1 (Arabidopsis thaliana;Arabidopsis …, UniProt O49653;Q94K14;Q6NMZ4;Q8GWD7 1-353;1-226;1-172;1-96, |I47K||); details: protein: recombinant;recombinant;recombinant;recombinant; tags: none (6His on partner PCC1);;6His (C-term);6His (C-term); chain copies: 2;2;2;2; label: 5' 6-FAM; tRNA cloverleaf
# T2 sequence 1: T1 sequence 1
# T2 sequence 2: T1 sequence 2 with I47K, K165L
# T2 sequence 3: T1 sequence 3
# T2 sequence 4: T1 sequence 4
# KAE1;PCC1 = biological target: T3, KAE1;PCC1 (Arabidopsis thaliana;Arabidopsis …, UniProt O49653;Q8GWD7 1-353;1-96, |); details: protein: recombinant;recombinant; tags: none (6His on partner PCC1);6His (C-term); chain copies: 2;2; label: 5' 6-FAM; tRNA cloverleaf
# T3 sequence 1: T1 sequence 1
# T3 sequence 2: T1 sequence 4
# [3] = biological target: T4, KAE1;BUD32 R220stop;CGI121;PCC1 (Arabidopsis thaliana;Arabidopsis …, UniProt O49653;Q94K14;Q6NMZ4;Q8GWD7 1-353;1-219;1-172;1-96, |del220-226||); details: protein: recombinant;recombinant;recombinant;recombinant; tags: none (6His on partner PCC1);;6His (C-term);6His (C-term); chain copies: 2;2;2;2; label: 5' 6-FAM; tRNA cloverleaf
# T4 sequence 1: T1 sequence 1
# T4 sequence 2: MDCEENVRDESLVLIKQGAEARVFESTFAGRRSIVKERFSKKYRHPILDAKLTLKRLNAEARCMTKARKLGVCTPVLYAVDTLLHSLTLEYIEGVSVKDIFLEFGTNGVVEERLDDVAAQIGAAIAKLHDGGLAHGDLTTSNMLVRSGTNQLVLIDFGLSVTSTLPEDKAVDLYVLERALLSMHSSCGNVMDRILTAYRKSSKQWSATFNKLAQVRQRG
# T4 sequence 3: T1 sequence 3
# T4 sequence 4: T1 sequence 4
# CGI121 = biological target: T5, CGI121 (Arabidopsis thaliana, UniProt Q6NMZ4 1-172); details: protein: recombinant; tags: 6His (C-term); label: 5' 6-FAM; tRNA cloverleaf
# T5 sequence: T1 sequence 3
binder,measurement,setting,value
B1,binding result,[1],binds
same,binding result,[2],binds
same,binding result,KAE1;PCC1,no binding
same,binding result,[3],binds
same,binding result,CGI121,no binding
